Test results from publication PMC6326798.

T1: GST-thCENP-K^FL (full-length T. terrestris CENP-K with N-terminal GST)
T1 chain: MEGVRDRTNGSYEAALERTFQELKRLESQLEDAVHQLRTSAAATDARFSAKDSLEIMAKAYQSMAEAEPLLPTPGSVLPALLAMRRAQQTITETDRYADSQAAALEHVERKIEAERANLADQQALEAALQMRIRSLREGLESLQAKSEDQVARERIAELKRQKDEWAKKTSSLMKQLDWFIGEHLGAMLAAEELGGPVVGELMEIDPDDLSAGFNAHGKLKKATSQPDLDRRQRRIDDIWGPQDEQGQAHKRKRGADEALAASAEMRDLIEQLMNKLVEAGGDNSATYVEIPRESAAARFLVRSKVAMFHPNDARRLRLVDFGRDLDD

T2: GST-thCENP-K^ΔN75
T2 chain: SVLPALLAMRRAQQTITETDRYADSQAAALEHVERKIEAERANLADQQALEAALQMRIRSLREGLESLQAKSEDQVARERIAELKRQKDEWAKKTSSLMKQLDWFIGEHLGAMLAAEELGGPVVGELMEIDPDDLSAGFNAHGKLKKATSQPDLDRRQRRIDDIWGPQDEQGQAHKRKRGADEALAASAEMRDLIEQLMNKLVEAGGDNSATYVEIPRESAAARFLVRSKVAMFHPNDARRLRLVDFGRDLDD

T3: GST-ctCENP-I^NT
T3 chain: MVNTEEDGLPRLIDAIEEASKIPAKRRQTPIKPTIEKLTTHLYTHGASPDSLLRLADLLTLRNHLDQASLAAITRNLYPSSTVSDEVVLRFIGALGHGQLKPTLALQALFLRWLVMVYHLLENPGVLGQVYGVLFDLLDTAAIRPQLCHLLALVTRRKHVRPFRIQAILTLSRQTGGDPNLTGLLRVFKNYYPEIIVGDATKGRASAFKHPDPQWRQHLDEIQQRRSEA


Experiments:
[1] = target: C. thermophilum CENP-I residues 1-229 (ctCENP-I^NT), untagged; assay: GST pull-down; conditions: in the presence of thCENP-K; parent: est. 1.0; read off a plot
[2] = target: thCENP-H/K complex (full-length thCENP-H with full-length thCENP-K) (Thielavia terrestris); assay: AUC; sedimentation velocity, 4°C, 42 000 rpm, PBS; continuous c(s) model in SEDFIT
[3] = target: full-length T. terrestris CENP-K (thCENP-K) (Thielavia terrestris); assay: as above
[4] = target: T1, GST-thCENP-K^FL (full-length T. …); assay: GST pull-down; conditions: chain shown with the change;; parent: est. 1.0; read off a plot
GST-thCENP-K^ΔN75 = target: T2, GST-thCENP-K^ΔN75; assay: GST pull-down; conditions: chain shown with the change;; parent: est. 1.0; read off a plot
GST-ctCENP-I^NT = target: T3, GST-ctCENP-I^NT; assay: GST pull-down; conditions: chain shown with the change;; parent: est. 1.0; read off a plot

Molecule	ratio to parent [4]	ratio to parent (GST-thCENP-K^ΔN75)	ratio to parent (GST-ctCENP-I^NT)	other results
GST-thCENP-H WT R220E; L224A	–	–	–	ratio to parent [1]: 0.2
GST-thCENP-H WT I205A; L219A	–	–	–	ratio to parent [1]: 0.63
C. thermophilum CENP-I residues 1-229 (ctCENP-I^NT), untagged (domain or fragment)	–	–	–	stoichiometry N [2]: 1
full-length T. terrestris CENP-H (thCENP-H) (natural protein)	–	–	–	stoichiometry N [3]: 1
full-length T. terrestris CENP-H (thCENP-H) L219A (protein) MAATASTATPTPLPHFTEREASVLALYDRLRQLQLELALLTSQRSHGVIETSASRRAENDLAVDEARLLEARATLDLRDSVVENVVTLQPILNAVHHATHASPLERDLLPYTEQRDATATKVASLCADLDSAWGRLAELETESLRATQRNMELASEVLRLAAGTNDKTPSQLEGGRLEMELAGHEAEMKSNRRRWRIMKGAASAIVAGSGIDWVRDERARDLVLDLPD	0.89	0.68	–	–
full-length T. terrestris CENP-H (thCENP-H) I205A; L219A (protein) MAATASTATPTPLPHFTEREASVLALYDRLRQLQLELALLTSQRSHGVIETSASRRAENDLAVDEARLLEARATLDLRDSVVENVVTLQPILNAVHHATHASPLERDLLPYTEQRDATATKVASLCADLDSAWGRLAELETESLRATQRNMELASEVLRLAAGTNDKTPSQLEGGRLEMELAGHEAEMKSNRRRWRIMKGAASAAVAGSGIDWVRDERARDLVLDLPD	0.9	0.36	1.1	–
full-length T. terrestris CENP-H (thCENP-H) I205A; I211A (protein) MAATASTATPTPLPHFTEREASVLALYDRLRQLQLELALLTSQRSHGVIETSASRRAENDLAVDEARLLEARATLDLRDSVVENVVTLQPILNAVHHATHASPLERDLLPYTEQRDATATKVASLCADLDSAWGRLAELETESLRATQRNMELASEVLRLAAGTNDKTPSQLEGGRLEMELAGHEAEMKSNRRRWRIMKGAASAAVAGSGADWVRDERLRDLVLDLPD	0.88	0.33	1.1	–
full-length T. terrestris CENP-H (thCENP-H) R220E (protein) MAATASTATPTPLPHFTEREASVLALYDRLRQLQLELALLTSQRSHGVIETSASRRAENDLAVDEARLLEARATLDLRDSVVENVVTLQPILNAVHHATHASPLERDLLPYTEQRDATATKVASLCADLDSAWGRLAELETESLRATQRNMELASEVLRLAAGTNDKTPSQLEGGRLEMELAGHEAEMKSNRRRWRIMKGAASAIVAGSGIDWVRDERLEDLVLDLPD	0.97	1.1	0.32	–
full-length T. terrestris CENP-H (thCENP-H) L224A (protein) MAATASTATPTPLPHFTEREASVLALYDRLRQLQLELALLTSQRSHGVIETSASRRAENDLAVDEARLLEARATLDLRDSVVENVVTLQPILNAVHHATHASPLERDLLPYTEQRDATATKVASLCADLDSAWGRLAELETESLRATQRNMELASEVLRLAAGTNDKTPSQLEGGRLEMELAGHEAEMKSNRRRWRIMKGAASAIVAGSGIDWVRDERLRDLVADLPD	–	1.1	0.36	–
full-length T. terrestris CENP-H (thCENP-H) I211A; L219A (protein) MAATASTATPTPLPHFTEREASVLALYDRLRQLQLELALLTSQRSHGVIETSASRRAENDLAVDEARLLEARATLDLRDSVVENVVTLQPILNAVHHATHASPLERDLLPYTEQRDATATKVASLCADLDSAWGRLAELETESLRATQRNMELASEVLRLAAGTNDKTPSQLEGGRLEMELAGHEAEMKSNRRRWRIMKGAASAIVAGSGADWVRDERARDLVLDLPD	–	0.46	1.2	–
full-length T. terrestris CENP-H (thCENP-H) R220E; L224A (protein) MAATASTATPTPLPHFTEREASVLALYDRLRQLQLELALLTSQRSHGVIETSASRRAENDLAVDEARLLEARATLDLRDSVVENVVTLQPILNAVHHATHASPLERDLLPYTEQRDATATKVASLCADLDSAWGRLAELETESLRATQRNMELASEVLRLAAGTNDKTPSQLEGGRLEMELAGHEAEMKSNRRRWRIMKGAASAIVAGSGIDWVRDERLEDLVADLPD	–	1.1	0.13	–
full-length T. terrestris CENP-H (thCENP-H) W213A (protein) MAATASTATPTPLPHFTEREASVLALYDRLRQLQLELALLTSQRSHGVIETSASRRAENDLAVDEARLLEARATLDLRDSVVENVVTLQPILNAVHHATHASPLERDLLPYTEQRDATATKVASLCADLDSAWGRLAELETESLRATQRNMELASEVLRLAAGTNDKTPSQLEGGRLEMELAGHEAEMKSNRRRWRIMKGAASAIVAGSGIDAVRDERLRDLVLDLPD	0.97	–	1.2	–
full-length T. terrestris CENP-H (thCENP-H) I205A (protein) MAATASTATPTPLPHFTEREASVLALYDRLRQLQLELALLTSQRSHGVIETSASRRAENDLAVDEARLLEARATLDLRDSVVENVVTLQPILNAVHHATHASPLERDLLPYTEQRDATATKVASLCADLDSAWGRLAELETESLRATQRNMELASEVLRLAAGTNDKTPSQLEGGRLEMELAGHEAEMKSNRRRWRIMKGAASAAVAGSGIDWVRDERLRDLVLDLPD	0.94	0.65	1.1	–
full-length T. terrestris CENP-H (thCENP-H) I211A (protein) MAATASTATPTPLPHFTEREASVLALYDRLRQLQLELALLTSQRSHGVIETSASRRAENDLAVDEARLLEARATLDLRDSVVENVVTLQPILNAVHHATHASPLERDLLPYTEQRDATATKVASLCADLDSAWGRLAELETESLRATQRNMELASEVLRLAAGTNDKTPSQLEGGRLEMELAGHEAEMKSNRRRWRIMKGAASAIVAGSGADWVRDERLRDLVLDLPD	0.95	0.7	1.2	–
